Experimental data published in patent publication US20210115113A1 (CITY OF HOPE, published 2021).

Experiments:
[1] = target: EBV gp350 on EBV-eGFP virions (Epstein-Barr virus) (UniProt P03200); experiment: cell-based or functional assay
[2] = target: murine 72A1 (m72A1), anti-EBV gp350 neutralizing antibody from hybridoma HB168; experiment: ELISA, mAb 10 µg/ml captured on soluble gp350, HRP secondary 1:2,000
humanized 72A1 (h72A1) = experiment: as above
[3] = target: T1, EBV gp350 on EBV-eGFP virions (Epstein-Barr virus, UniProt P03200 1-907); experiment: cell-based or functional assay
T1 sequence: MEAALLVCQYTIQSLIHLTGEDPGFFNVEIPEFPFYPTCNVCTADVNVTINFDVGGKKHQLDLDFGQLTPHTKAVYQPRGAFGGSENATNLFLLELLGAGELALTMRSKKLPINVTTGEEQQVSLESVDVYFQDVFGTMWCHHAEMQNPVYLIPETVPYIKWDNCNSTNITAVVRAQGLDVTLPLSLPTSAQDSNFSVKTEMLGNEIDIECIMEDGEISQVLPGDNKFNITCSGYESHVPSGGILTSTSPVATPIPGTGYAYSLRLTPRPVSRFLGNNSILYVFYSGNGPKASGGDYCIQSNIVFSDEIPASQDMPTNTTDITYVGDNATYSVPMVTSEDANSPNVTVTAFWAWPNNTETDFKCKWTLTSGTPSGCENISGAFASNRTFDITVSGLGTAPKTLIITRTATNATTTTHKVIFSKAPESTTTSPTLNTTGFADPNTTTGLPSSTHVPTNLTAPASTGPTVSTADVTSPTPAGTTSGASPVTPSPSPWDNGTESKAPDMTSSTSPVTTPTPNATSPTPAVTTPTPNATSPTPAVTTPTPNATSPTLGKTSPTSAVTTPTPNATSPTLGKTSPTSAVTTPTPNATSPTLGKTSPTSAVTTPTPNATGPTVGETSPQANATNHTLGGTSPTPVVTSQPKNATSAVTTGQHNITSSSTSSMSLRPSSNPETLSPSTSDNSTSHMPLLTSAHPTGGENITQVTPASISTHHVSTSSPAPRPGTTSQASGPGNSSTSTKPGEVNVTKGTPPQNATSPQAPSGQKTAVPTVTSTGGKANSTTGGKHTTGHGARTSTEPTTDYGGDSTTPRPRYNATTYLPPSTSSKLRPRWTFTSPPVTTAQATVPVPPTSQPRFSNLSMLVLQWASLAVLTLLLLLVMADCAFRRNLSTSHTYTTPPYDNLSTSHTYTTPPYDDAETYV

[4] = target: T2, EBV gp350 expressed on the surface of stably transfected CHO cells (Epstein-Barr virus, UniProt P03200 1-907); experiment: cell competition (flow), unlabeled 125 µg/ml; competitor: biotinylated m72A1 1 µg/ml
T2 construct: also called native gp350; gp350 expressing CHO cells
T2 sequence: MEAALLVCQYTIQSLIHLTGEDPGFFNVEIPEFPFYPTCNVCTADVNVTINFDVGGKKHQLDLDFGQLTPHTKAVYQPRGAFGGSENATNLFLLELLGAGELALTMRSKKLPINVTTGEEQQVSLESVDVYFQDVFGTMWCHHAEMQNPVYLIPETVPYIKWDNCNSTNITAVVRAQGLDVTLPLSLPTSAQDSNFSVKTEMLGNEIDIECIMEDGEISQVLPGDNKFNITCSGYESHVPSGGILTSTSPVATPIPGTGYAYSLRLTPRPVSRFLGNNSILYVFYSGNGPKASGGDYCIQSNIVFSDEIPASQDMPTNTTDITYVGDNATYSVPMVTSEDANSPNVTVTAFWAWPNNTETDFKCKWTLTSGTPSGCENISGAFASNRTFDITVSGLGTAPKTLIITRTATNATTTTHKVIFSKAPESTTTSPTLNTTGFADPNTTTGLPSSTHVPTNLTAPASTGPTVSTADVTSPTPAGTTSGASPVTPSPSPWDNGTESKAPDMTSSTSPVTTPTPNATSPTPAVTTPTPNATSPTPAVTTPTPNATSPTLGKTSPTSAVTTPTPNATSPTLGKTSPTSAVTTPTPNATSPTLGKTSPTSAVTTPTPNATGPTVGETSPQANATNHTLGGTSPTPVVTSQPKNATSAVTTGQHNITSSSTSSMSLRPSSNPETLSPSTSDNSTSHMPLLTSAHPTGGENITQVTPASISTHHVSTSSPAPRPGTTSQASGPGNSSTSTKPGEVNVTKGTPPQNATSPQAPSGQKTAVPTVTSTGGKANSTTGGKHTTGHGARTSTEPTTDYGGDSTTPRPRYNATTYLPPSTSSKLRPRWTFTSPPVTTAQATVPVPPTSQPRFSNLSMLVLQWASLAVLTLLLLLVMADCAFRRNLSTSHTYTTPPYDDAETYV

[5] = target: T2, EBV gp350 expressed on the surface of …; experiment: cell competition (flow), unlabeled 250 µg/ml; competitor: biotinylated m72A1 1 µg/ml
[6] = target: T2, EBV gp350 expressed on the surface of …; experiment: cell competition (flow), unlabeled 500 µg/ml; competitor: biotinylated m72A1 1 µg/ml
[7] = target: T2, EBV gp350 expressed on the surface of …; experiment: cell competition (flow), unlabeled 67.5 µg/ml; competitor: biotinylated m72A1 1 µg/ml
[8] = target: T2, EBV gp350 expressed on the surface of …; experiment: cross-competition on gp350-CHO cells (flow), unlabeled 500 µg/ml; competitor: biotinylated HB1
[9] = target: T2, EBV gp350 expressed on the surface of …; experiment: cross-competition on gp350-CHO cells (flow), unlabeled 500 µg/ml; competitor: biotinylated HB5
[10] = target: T2, EBV gp350 expressed on the surface of …; experiment: cross-competition on gp350-CHO cells (flow), unlabeled 500 µg/ml; competitor: biotinylated 54A1
[11] = target: T2, EBV gp350 expressed on the surface of …; experiment: cross-competition on gp350-CHO cells (flow), unlabeled 500 µg/ml; competitor: biotinylated HB11
[12] = target: T2, EBV gp350 expressed on the surface of …; experiment: cross-competition on gp350-CHO cells (flow), unlabeled 500 µg/ml; competitor: biotinylated HB17
[13] = target: T2, EBV gp350 expressed on the surface of …; experiment: cross-competition on gp350-CHO cells (flow), unlabeled 500 µg/ml; competitor: biotinylated HB20
[14] = target: T2, EBV gp350 expressed on the surface of …; experiment: cross-competition on gp350-CHO cells (flow), unlabeled 500 µg/ml; competitor: biotinylated h72A1
[15] = target: T2, EBV gp350 expressed on the surface of …; experiment: cross-competition on gp350-CHO cells (flow), unlabeled 500 µg/ml; competitor: biotinylated m72A1

murine 72A1 (m72A1), anti-EBV gp350 neutralizing antibody from hybridoma HB168, sequence (VH, as listed by the source limits assumed, chain 1 of 2): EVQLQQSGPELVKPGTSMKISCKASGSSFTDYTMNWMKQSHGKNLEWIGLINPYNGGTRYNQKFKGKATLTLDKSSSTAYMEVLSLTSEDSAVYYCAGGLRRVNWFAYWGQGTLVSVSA
murine 72A1 (m72A1), anti-EBV gp350 neutralizing antibody from hybridoma HB168, sequence (VL, as listed by the source limits assumed, chain 2 of 2): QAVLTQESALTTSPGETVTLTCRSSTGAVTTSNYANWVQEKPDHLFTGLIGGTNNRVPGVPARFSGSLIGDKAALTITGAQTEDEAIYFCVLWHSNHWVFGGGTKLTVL
humanized 72A1 (h72A1), sequence (VH, as listed by the source limits assumed, chain 1 of 2): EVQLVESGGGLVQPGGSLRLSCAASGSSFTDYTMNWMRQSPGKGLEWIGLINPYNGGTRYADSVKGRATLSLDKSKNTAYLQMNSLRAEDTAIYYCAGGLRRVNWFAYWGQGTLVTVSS
humanized 72A1 (h72A1), sequence (VL, as listed by the source limits assumed, chain 2 of 2): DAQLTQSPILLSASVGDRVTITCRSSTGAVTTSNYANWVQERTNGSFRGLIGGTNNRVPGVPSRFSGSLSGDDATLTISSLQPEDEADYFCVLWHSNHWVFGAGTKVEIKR

murine 72A1 (m72A1), anti-EBV gp350 neutralizing antibody from hybridoma HB168
% blocking of EBV-eGFP infection of Raji cells at 12.5 µg/ml [1]: 93%
% neutralization of EBV-eGFP infection of Raji cells, 12.5-100 µg/ml [1]: 35 to 80%

HRP-conjugated goat anti-mouse IgG (antibody)
fold ELISA signal above the background (1× PBS) [2]: 28 fold
fold ELISA signal as compared to goat anti-human IgG [2]: 9 fold

HRP-conjugated goat anti-human IgG (antibody)
fold ELISA signal over the background (humanized 72A1 (h72A1)): 2100 fold

B1: HB20 (antibody, V domains shown)
VH: ELVKPGASVKLSCKASGYTFTSYWIQWVKQRPGQGLEWIGEINPTNGHTNYNEKFKTKATLTVDKSSSTAYMRLSSLTSEDSAVYYCARNLYYYGRPDYWGQGTSVTVSS
VL: SSLSASLGDRVTISCRASQDIGNYLNWYQQKPDGTVKLLIYYTSRLHSGVPSRFSGSGSGTDYSLTISNLEQEDIATYFCQQGNALPPTFGGGTKLEIKR
% neutralization of EBV-eGFP infection of Raji cells at 100 µg/ml [3]: 90%
% inhibition of biotinylated nAbs [4]: 87%
% inhibition of biotinylated nAbs [5]: 91%
% inhibition of biotinylated nAbs [6]: 96%
% inhibition of biotinylated nAbs [7]: 89%
% inhibition of biotinylated nAbs [8]: 88%
% inhibition of biotinylated nAbs [9]: 97%
% inhibition of biotinylated nAbs [10]: 0%
% inhibition of biotinylated nAbs [11]: 89%
% inhibition of biotinylated nAbs [12]: 13%
% inhibition of biotinylated nAbs [13]: 59%
% inhibition of biotinylated nAbs [14]: 96%
% inhibition of biotinylated nAbs [15]: 98%
